These results are taken from article PMC10319729 (Scientific Reports, 2023).

What is called Kd is the concentration at which binding is half-saturated. A lower Kd goes with higher affinity.

For the test, the target named is T1, LGR4 (HA-LGR4) over-expressed on HEK293 cells (UniProt Q9BXB1 25-951).
T1 construct: Plasmid and cell line described in earlier work; also called HEK293-LGR4; full-length LGR4; source: HEK293 cells over-expressing the receptor (HEK293-LGR4), on cells
The test can be described thus: whole-cell binding, fluorescence plate reader; His-tagged ligand in 3x serial dilution on cells in 96-well plates, on ice 1 h, washed, fixed with 4.2% paraformaldehyde, Alexa488-labeled anti-His antibody; half-maximum binding (KD) from a three-parameter dose-response fit. The following applies: one partner purified.

B1: R2FuTSP-His (RSPO2 furin domain with TSP domain, His-tagged) (domain or fragment, UniProt Q6UXX9 22-205, looked up)
chain: QGNRWRRSKRASYVSNPICKGCLSCSKDNGCSRCQQKLFFFLRREGMRQYGECLHSCPSGYYGHRAPDMNRCARCRIENCDSCFSKDFCTKCKVGFYLHRGRCFDECPDGFAPLEETMECVEGCEVGHWSEWGTCSRNNRTCGFKWGLETRTRQIVKKPVKDTILCPTIAESRRCKMTMRHCPG
notes: R-spondin 2 (RSPO2), furin domain with the thrombospondin-like (TSP) domain; source: bought: R&D Systems
B1 gave a Kd of 2.2 ± 0.3 nM.
